Data on one protein can be found in patent publication US20080102477.

In the data set the target is T1, BubR1 (amino acids 1-514) GST-fusion protein, O60566.
T1 chain: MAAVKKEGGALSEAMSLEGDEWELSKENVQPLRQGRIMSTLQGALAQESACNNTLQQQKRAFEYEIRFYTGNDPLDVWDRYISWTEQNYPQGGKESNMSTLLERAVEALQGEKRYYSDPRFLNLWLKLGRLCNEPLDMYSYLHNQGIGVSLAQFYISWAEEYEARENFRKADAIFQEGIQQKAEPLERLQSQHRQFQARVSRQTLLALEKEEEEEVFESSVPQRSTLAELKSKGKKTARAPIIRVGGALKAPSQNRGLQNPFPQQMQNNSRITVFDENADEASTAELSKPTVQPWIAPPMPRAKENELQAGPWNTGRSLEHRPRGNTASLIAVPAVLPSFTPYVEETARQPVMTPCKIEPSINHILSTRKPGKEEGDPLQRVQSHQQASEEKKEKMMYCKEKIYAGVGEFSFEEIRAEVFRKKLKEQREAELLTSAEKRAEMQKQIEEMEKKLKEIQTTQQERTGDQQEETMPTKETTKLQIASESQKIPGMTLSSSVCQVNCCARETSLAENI

B1: PCAF (amino acids 352-832) GST-fusion protein (protein)
chain: MLEEEVYSQNSPIWDQDFLSASSRTSQLGIQTVINPPPVAGTISYNSTSSSLEQPNAGSSSPACKASSGLEANPGEKRKMTDSHVLEEAKKPRVMGDIPMELINEVMSTITDPAAMLGPETNFLSAHSARDEAARLEERRGVIEFHVVGNSLNQKPNKKILMWLVGLQNVFSHQLPRMPKEYITRLVFDPKHKTLALIKDGRVIGGICFRMFPSQGFTEIVFCAVTSNEQVKGYGTHLMNHLKEYHIKHDILNFLTYADEYAIGYFKKQGFSKEIKIPKTKYVGYIKDYEGATLMGCELNPRIPYTEFSVIIKKQKEIIKKLIERKQAQIRKVYPGLSCFKDGVRQIPIESIPGIRETGWKPSGKEKSKEPRDPDQLYSTLKSILQQVKSHQSAWPFMEPVKRTEAPGYYEVIRFPMDLKTMSERLKNRYYVSKKLFMADLQRVFTNCKEYNPPESEYYKCANILEKFFFSKIKEAGLIDK
For the protein B1, the “in vitro acetylation assay (Western blot with anti-acetyl lysine antibodies; MALDI-MS and MS/MS of pepsin peptides)” value was “the appearance of a 42 Da acetylation peak in the presence of active PCAF (PCAF 352-832) confirmed that lysine 250 (K250) is the acetylation site of BubR1”.
